Consider 9 molecules from patent US11814447B2, “Peptide ligands for binding to EphA2” (BICYCLERD LIMITED, priority 2018, dated 2023).

For orientation: Ki means a measure of affinity in units of concentration, obtained from inhibition or displacement. Higher therefore signals a looser hold on the target. By Kd is commonly meant the concentration at which binding is half-saturated. Higher therefore signals lower affinity.

One experiment addresses T1, Human EphA2 (Ecto) (Human, UniProt P29317 24-537).
T1 construct: extracellular domain
As to the kind of experiment: FP competition, tracer Compound 18. The method, boiled down: (§1)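 Unlabelled peptides competed against a fluorescently tagged peptide of known Kd. Peptides were diluted in direct-binding assay buffer (≤5% DMSO) and serially diluted 1 in 2. Read as in the direct binding assay, with gain set before the first read; mP values fit to a cubic equation to give Ki.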

In experiment [1] the target is T2, Mouse EphA2 (Ecto) (Mouse, UniProt Q03145 26-538).
T2 construct: extracellular domain
As to the kind of experiment: FP competition, tracer Compound 18. The procedure, abridged:
as §1

Experiment [2] addresses T3, Human EphA2 (Ecto), C-terminal polyHis (Human, UniProt P29317 24-537).
T3 construct: extracellular domain; also called EPH receptor A2; ephrin type-A receptor 2
As to the kind of experiment: fluorescence polarisation competition; competitor fluorescent Compound 66. The method, boiled down: as §1
A general note: Polarisation of emitted light reports the rotation of a fluorescent probe.

Experiment [3] deals with T3, Human EphA2 (Ecto), C-terminal polyHis. As to the kind of experiment: fluorescence polarisation competition; competitor fluorescent Compound 1. The procedure:
(§2) Peptides without a fluorescent tag were tested in competition with a peptide with a fluorescent tag and a known Kd (Table 2). Peptides were diluted to an appropriate concentration in assay buffer as described in the direct binding assay with a maximum of 5% DMSO, then serially diluted 1 in 2. […] Measurements were conducted as for the direct binding assay, however the gain was determined prior to the first measurement. Data analysis was in Systat Sigmaplot version 12.0 where the mP values were fit to a user defined cubic equation to generate a Ki value: […]

Experiment [4] shares this target. As to the kind of experiment: fluorescence polarisation competition; competitor fluorescent Compound 12. The procedure: as §2
The target in experiment [5] is Human EphA2 (Ecto) (Human) (UniProt P29317). As to the kind of experiment: FP direct binding.
Experiment [6] addresses T4, Mouse EphA2 (Ecto) (Mouse, UniProt Q03145 26-538).
T4 construct: extracellular domain; not shown: Fc fusion or C-terminal polyHis
As to the kind of experiment: fluorescence polarisation, direct binding.

Experiment [7] addresses EphA2 (species not stated in Examples 1-6 and Reference Examples 1-2) (Homo sapiens (Human)) (UniProt P29317). As to the kind of experiment: fluorescence polarisation competition; fluorescent peptide not named.
The target of experiment [8] is EphA2 (species not stated in Examples 1-6 and Reference Examples 1-2) (Homo sapiens (Human), UniProt P29317 24-537). Described as above.
Experiment [9] addresses Mouse EphA2 (Ecto) (Mouse) (UniProt Q03145). As to the kind of experiment: FP competition; tracer Reference Compound C.
The target in experiment [10] is Human EphA2 (Ecto) (Human) (UniProt P29317). As to the kind of experiment: FP competition; tracer Reference Compound C.

Starred links: 1 amine or outer side, 2 acyl side, 3 side chain; linkers in the order of their positions; H or OH if unused. Positions of bridges follow the written chain, without caps; N, C: chain ends. Non-standard residues stand in square brackets, D forms with d. Primed or numbered codes have the meaning given here. No end group written: not given here. TBMB′ = 1,3,5-tris(bromomethyl)benzene, 1,3,5-tris(methylene)benzene core, three thioethers to Cys; TATA = O=C(CC[*:1])N1CN(C(=O)CC[*:2])CN(C(=O)CC[*:3])C1; Fl″ = fluorescein label (5(6)-carboxyfluorescein; TBMB = c1c(C[*:1])cc(C[*:3])cc1C[*:2]; hArg = N=C(N)NCCCC[C@H](N)C(=O)O; Dap = NC[C@H](N)C(=O)O; AF488 = AlexaFluor488; βAla = NCCC(=O)O; Sar = CNCC(=O)O

T3 sequence (P29317 24-537): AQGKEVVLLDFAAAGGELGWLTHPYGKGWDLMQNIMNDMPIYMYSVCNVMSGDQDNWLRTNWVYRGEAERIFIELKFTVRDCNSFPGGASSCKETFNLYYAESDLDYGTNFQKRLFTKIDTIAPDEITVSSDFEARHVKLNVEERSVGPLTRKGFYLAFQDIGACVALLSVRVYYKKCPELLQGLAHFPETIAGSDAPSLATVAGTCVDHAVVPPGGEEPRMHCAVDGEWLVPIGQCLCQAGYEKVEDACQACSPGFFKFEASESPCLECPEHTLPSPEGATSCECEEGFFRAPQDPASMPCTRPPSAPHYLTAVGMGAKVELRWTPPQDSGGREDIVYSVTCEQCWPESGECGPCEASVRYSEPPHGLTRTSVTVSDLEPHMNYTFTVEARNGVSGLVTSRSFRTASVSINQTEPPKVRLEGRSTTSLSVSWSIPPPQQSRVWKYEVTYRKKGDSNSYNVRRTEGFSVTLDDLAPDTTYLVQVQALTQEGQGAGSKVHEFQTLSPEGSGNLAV
Sequence of Human EphA2 (Ecto) (Human) (P29317 24-537): as above
T1 sequence (P29317 24-537): as above
Sequence of Mouse EphA2 (Ecto) (Mouse) (Q03145 26-538): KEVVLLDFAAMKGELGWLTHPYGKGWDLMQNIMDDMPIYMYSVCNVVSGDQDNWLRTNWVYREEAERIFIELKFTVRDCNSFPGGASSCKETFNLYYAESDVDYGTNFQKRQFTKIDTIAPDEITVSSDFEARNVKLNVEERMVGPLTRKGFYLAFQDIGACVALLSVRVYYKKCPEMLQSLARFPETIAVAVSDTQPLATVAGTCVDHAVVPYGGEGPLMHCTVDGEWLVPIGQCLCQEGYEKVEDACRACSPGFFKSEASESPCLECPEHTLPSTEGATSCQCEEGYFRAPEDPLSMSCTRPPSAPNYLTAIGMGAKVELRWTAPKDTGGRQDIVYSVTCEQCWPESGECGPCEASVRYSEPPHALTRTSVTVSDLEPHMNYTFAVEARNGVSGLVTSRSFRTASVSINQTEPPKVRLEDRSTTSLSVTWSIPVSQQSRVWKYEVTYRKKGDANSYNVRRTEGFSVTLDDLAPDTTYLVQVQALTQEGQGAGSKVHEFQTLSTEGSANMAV
Sequence of EphA2 (species not stated in Examples 1-6 and Reference Examples 1-2) (Homo sapiens (Human)) (P29317 24-537 limits assumed, form in doubt): as the sequence (P29317 24-537) above
Sequence of EphA2 (species not stated in Examples 1-6 and Reference Examples 1-2) (P29317 24-537 limits assumed, form in doubt): as the sequence (P29317 24-537) above

Consider Ac-[Sar][Sar]A[dD]VTCPWGPFWCPVNRPGC (linker 7-14-21 via TBMB′) [Bicycle Compound 158], for which the Ki with Human EphA2 (Ecto) was found to be 2.05 nM; in the experiment with Mouse EphA2 (Ecto) [1] it was 2.2 nM.
For Ac-[Sar][Sar]H[dD]VPCPWGPFWCPVNRPGC (linker 7-14-21 via TBMB) [Bicycle Compound 225], in that order: 1 nM and 2.08 nM.
As to ACVPQGIWCALQFEPCA (linker 2-9-16 via TBMB (inferred), also called Compound 63) [Bicycle Compound Number 63 (TBMB scaffold)], the Ki in experiment [2] came out at 82.5 nM; in experiment [3], 144 nM; in experiment [4], 92.2 nM.
For {Fl″}-[βAla][Sar][Sar][Sar][Sar][Sar][Sar][Sar][Sar][Sar][Sar]A[hArg]DCPLVNPLCLHPGWTC (linker 15-22-29 via TATA) [Bicycle Compound 10 (TATA, Table 11)], the Kd in experiment [5] was found to be 9.07 nM.
In experiment [3], ACRNIPTMCPFGPVWCA (linker 2-9-16 via TBMB, also called Compound 32) [Bicycle Compound Number 32 (TBMB scaffold)] registered a Ki of 83.4 nM.
In the experiment with Mouse EphA2 (Ecto) [6], AF488-[βAla][Sar][Sar][Sar][Sar][Sar][Sar][Sar][Sar][Sar][Sar]H[dD]VPCPWGPFWCPVNRPGCA (linker 16-23-30 via TBMB) [Bicycle Compound Number 139 (TBMB scaffold)] returned a Kd of 0.8 nM.
Regarding Ac-[βAla][Sar][Sar][Sar][Sar][Sar][Sar][Sar][Sar][Sar][Sar]H[dD]VP[Dap]PWGPFW[Dap]PVNRPGC (linker 16-23-30 via TBMB) [55-03-05-N314], the Ki in experiment [7] amounted to 136 nM.

B1: 55-03-05-N233 (peptide)
peptide: [βAla][Sar][Sar][Sar][Sar][Sar][Sar][Sar][Sar][Sar][Sar]H[dD]VPCPWGPFWCPVNRPGC
modifications: linker 16-23-30 via TBMB
notes: bicyclic peptide on trimethylene benzene scaffold
B1: in [8], the Ki turned out to be 4.12 nM.
On to [βAla][Sar][Sar][Sar][Sar][Sar][Sar][Sar][Sar][Sar][Sar]ACPLVNPLCLHPGWSC[hArg]GQ (linker 13-20-27 via TATA) [Bicycle Compound Number 90 (TATA scaffold), (β-Ala)-Sar10-…(HArg)GQ], for which the Ki in [9] was 47 nM; in experiment [10] it was 5.41 nM.
